The values below come from PMC8184831.

For the data set, the system named is SOX2 (hSOX2) (human). As to the kind of experiment: EMSA. The settings on record: Plasmid EMSA: 60 mM KCl, 12 mM Hepes pH 7.9, 2 mM MgCl2, 1 mM DTT, 0.12 mM EDTA, 12% glycerol, 0.01% NP40, 10 ng/uL DNA, 15 min 30 C; 0.8% agarose 0.5x TBE. ….

In turn, SOX2 non-specific-site EMSA probe displayed a binding signal (fold higher Kd than specific site) of 30.

As for SOX2 specific-site EMSA probe, the Kd is 2 nM.
